Test results taken from article PMC10200994, “A family-wide assessment of latent STAT transcription factor interactions reveals divergent dimer repertoires” (The Journal of Biological Chemistry, 2023).

B1: STAT4 (unphosphorylated, wild-type), fluorophore fusion (natural protein, UniProt Q14765 1-748, looked up)
chain: MSQWNQVQQLEIKFLEQVDQFYDDNFPMEIRHLLAQWIENQDWEAASNNETMATILLQNLLIQLDEQLGRVSKEKNLLLIHNLKRIRKVLQGKFHGNPMHVAVVISNCLREERRILAAANMPVQGPLEKSLQSSSVSERQRNVEHKVAAIKNSVQMTEQDTKYLEDLQDEFDYRYKTIQTMDQSDKNSAMVNQEVLTLQEMLNSLDFKRKEALSKMTQIIHETDLLMNTMLIEELQDWKRRQQIACIGGPLHNGLDQLQNCFTLLAESLFQLRRQLEKLEEQSTKMTYEGDPIPMQRTHMLERVTFLIYNLFKNSFVVERQPCMPTHPQRPLVLKTLIQFTVKLRLLIKLPELNYQVKVKASIDKNVSTLSNRRFVLCGTNVKAMSIEESSNGSLSVEFRHLQPKEMKSSAGGKGNEGCHMVTEELHSITFETQICLYGLTIDLETSSLPVVMISNVSQLPNAWASIIWYNVSTNDSQNLVFFNNPPPATLSQLLEVMSWQFSSYVGRGLNSDQLHMLAEKLTVQSSYSDGHLTWAKFCKEHLPGKSFTFWTWLEAILDLIKKHILPLWIDGYVMGFVSKEKERLLLKDKMPGTFLLRFSESHLGGITFTWVDHSESGEVRFHSVEPYNKGRLSALPFADILRDYKVIMAENIPENPLKYLYPDIPKDKAFGKHYSSQPCEVSRPTERGDKGYVPSVFIPISTIRSDSTEPHSPSDLLPMSPSVYAVLRENLSPTTIETAMKSPYSAE
notes: STAT4, full-length wild type; One molecule for bait and test copies; also called U-STAT4; STAT4-NES; source: HeLa, transiently transfected, in cells; not shown: mCherry (test copy) or mEGFP (bait copy), C-terminal, kept
B2: STAT5A (unphosphorylated, wild-type), fluorophore fusion (natural protein, UniProt P42229 1-794, looked up)
chain: MAGWIQAQQLQGDALRQMQVLYGQHFPIEVRHYLAQWIESQPWDAIDLDNPQDRAQATQLLEGLVQELQKKAEHQVGEDGFLLKIKLGHYATQLQKTYDRCPLELVRCIRHILYNEQRLVREANNCSSPAGILVDAMSQKHLQINQTFEELRLVTQDTENELKKLQQTQEYFIIQYQESLRIQAQFAQLAQLSPQERLSRETALQQKQVSLEAWLQREAQTLQQYRVELAEKHQKTLQLLRKQQTIILDDELIQWKRRQQLAGNGGPPEGSLDVLQSWCEKLAEIIWQNRQQIRRAEHLCQQLPIPGPVEEMLAEVNATITDIISALVTSTFIIEKQPPQVLKTQTKFAATVRLLVGGKLNVHMNPPQVKATIISEQQAKSLLKNENTRNECSGEILNNCCVMEYHQATGTLSAHFRNMSLKRIKRADRRGAESVTEEKFTVLFESQFSVGSNELVFQVKTLSLPVVVIVHGSQDHNATATVLWDNAFAEPGRVPFAVPDKVLWPQLCEALNMKFKAEVQSNRGLTKENLVFLAQKLFNNSSSHLEDYSGLSVSWSQFNRENLPGWNYTFWQWFDGVMEVLKKHHKPHWNDGAILGFVNKQQAHDLLINKPDGTFLLRFSDSEIGGITIAWKFDSPERNLWNLKPFTTRDFSIRSLADRLGDLSYLIYVFPDRPKDEVFSKYYTPVLAKAVDGYVKPQIKQVVPEFVNASADAGGSSATYMDQAPSPAVCPQAPYNMYPQNPDHVLDQDGEFDLDETMDVARHVEELLRRPMDSLDSRLSPPAGLFTSARGSLS
notes: STAT5A, full-length wild type; One molecule for bait and test copies; also called U-STAT5A; STAT5A-NES; source: HeLa, transiently transfected, in cells; not shown: mCherry (test copy) or mEGFP (bait copy), C-terminal, kept
B3: STAT5B (unphosphorylated, wild-type), fluorophore fusion (natural protein, UniProt P51692 1-787, looked up)
chain: MAVWIQAQQLQGEALHQMQALYGQHFPIEVRHYLSQWIESQAWDSVDLDNPQENIKATQLLEGLVQELQKKAEHQVGEDGFLLKIKLGHYATQLQNTYDRCPMELVRCIRHILYNEQRLVREANNGSSPAGSLADAMSQKHLQINQTFEELRLVTQDTENELKKLQQTQEYFIIQYQESLRIQAQFGPLAQLSPQERLSRETALQQKQVSLEAWLQREAQTLQQYRVELAEKHQKTLQLLRKQQTIILDDELIQWKRRQQLAGNGGPPEGSLDVLQSWCEKLAEIIWQNRQQIRRAEHLCQQLPIPGPVEEMLAEVNATITDIISALVTSTFIIEKQPPQVLKTQTKFAATVRLLVGGKLNVHMNPPQVKATIISEQQAKSLLKNENTRNDYSGEILNNCCVMEYHQATGTLSAHFRNMSLKRIKRSDRRGAESVTEEKFTILFESQFSVGGNELVFQVKTLSLPVVVIVHGSQDNNATATVLWDNAFAEPGRVPFAVPDKVLWPQLCEALNMKFKAEVQSNRGLTKENLVFLAQKLFNNSSSHLEDYSGLSVSWSQFNRENLPGRNYTFWQWFDGVMEVLKKHLKPHWNDGAILGFVNKQQAHDLLINKPDGTFLLRFSDSEIGGITIAWKFDSQERMFWNLMPFTTRDFSIRSLADRLGDLNYLIYVFPDRPKDEVYSKYYTPVPCESATAKAVDGYVKPQIKQVVPEFVNASADAGGGSATYMDQAPSPAVCPQAHYNMYPQNPDSVLDTDGDFDLEDTMDVARRVEELLGRPMDSQWIPHAQS
notes: STAT5B, full-length wild type; One molecule for bait and test copies; also called U-STAT5B; STAT5B-NES; source: HeLa, transiently transfected, in cells; not shown: mCherry (test copy) or mEGFP (bait copy), C-terminal, kept
B4: STAT1 (unphosphorylated, wild-type), fluorophore fusion (natural protein, UniProt P42224 1-750, looked up)
chain: MSQWYELQQLDSKFLEQVHQLYDDSFPMEIRQYLAQWLEKQDWEHAANDVSFATIRFHDLLSQLDDQYSRFSLENNFLLQHNIRKSKRNLQDNFQEDPIQMSMIIYSCLKEERKILENAQRFNQAQSGNIQSTVMLDKQKELDSKVRNVKDKVMCIEHEIKSLEDLQDEYDFKCKTLQNREHETNGVAKSDQKQEQLLLKKMYLMLDNKRKEVVHKIIELLNVTELTQNALINDELVEWKRRQQSACIGGPPNACLDQLQNWFTIVAESLQQVRQQLKKLEELEQKYTYEHDPITKNKQVLWDRTFSLFQQLIQSSFVVERQPCMPTHPQRPLVLKTGVQFTVKLRLLVKLQELNYNLKVKVLFDKDVNERNTVKGFRKFNILGTHTKVMNMEESTNGSLAAEFRHLQLKEQKNAGTRTNEGPLIVTEELHSLSFETQLCQPGLVIDLETTSLPVVVISNVSQLPSGWASILWYNMLVAEPRNLSFFLTPPCARWAQLSEVLSWQFSSVTKRGLNVDQLNMLGEKLLGPNASPDGLIPWTRFCKENINDKNFPFWLWIESILELIKKHLLPLWNDGCIMGFISKERERALLKDQQPGTFLLRFSESSREGAITFTWVERSQNGGEPDFHAVEPYTKKELSAVTFPDIIRNYKVMAAENIPENPLKYLYPNIDKDHAFGKYYSRPKEAPEPMELDGPKGTGYIKTELISVSEVHPSRLQTTDNLLPMSPEEFDEVSRIVGSVEFDSMMNTV
notes: STAT1, full-length wild type; One molecule for bait and test copies; Three to five further heterologous residues flank the NES or NLS; cloning details only on request; also called U-STAT1; S1; source: HeLa, transiently transfected, in cells; not shown: mCherry (test copy) or mEGFP (bait copy), C-terminal, kept

Assays:
Assay in all cases: co-localization assay (relocalisation of a test protein by a compartment-targeted bait, fluorescence microscopy); HeLa cells co-expressing bait (STAT-NES or STAT-NLS, or wild-type STAT2 with its own export activity; green) and test protein without heterologous signal (red); no cytokine; fixed 20 h after transfection; Pearson correlation coefficient rP in cells with equimolar to 4-fold excess of bait
[1] = target: the molecule itself
[2] = target: B2; conditions: partners not purified
[3] = target: T1, STAT2 (unphosphorylated, wild-type), fluorophore fusion (UniProt P52630 1-851); conditions: partners not purified
T1 construct: STAT2, full-length wild type; used as bait through its own nuclear export activity; No heterologous NES or NLS on wild-type STAT2; also called U-STAT2; S2; source: HeLa, transiently transfected, in cells; not shown: mEGFP or mCherry, C-terminal, kept
T1 sequence (P52630 whole entry, the tested form may be a part): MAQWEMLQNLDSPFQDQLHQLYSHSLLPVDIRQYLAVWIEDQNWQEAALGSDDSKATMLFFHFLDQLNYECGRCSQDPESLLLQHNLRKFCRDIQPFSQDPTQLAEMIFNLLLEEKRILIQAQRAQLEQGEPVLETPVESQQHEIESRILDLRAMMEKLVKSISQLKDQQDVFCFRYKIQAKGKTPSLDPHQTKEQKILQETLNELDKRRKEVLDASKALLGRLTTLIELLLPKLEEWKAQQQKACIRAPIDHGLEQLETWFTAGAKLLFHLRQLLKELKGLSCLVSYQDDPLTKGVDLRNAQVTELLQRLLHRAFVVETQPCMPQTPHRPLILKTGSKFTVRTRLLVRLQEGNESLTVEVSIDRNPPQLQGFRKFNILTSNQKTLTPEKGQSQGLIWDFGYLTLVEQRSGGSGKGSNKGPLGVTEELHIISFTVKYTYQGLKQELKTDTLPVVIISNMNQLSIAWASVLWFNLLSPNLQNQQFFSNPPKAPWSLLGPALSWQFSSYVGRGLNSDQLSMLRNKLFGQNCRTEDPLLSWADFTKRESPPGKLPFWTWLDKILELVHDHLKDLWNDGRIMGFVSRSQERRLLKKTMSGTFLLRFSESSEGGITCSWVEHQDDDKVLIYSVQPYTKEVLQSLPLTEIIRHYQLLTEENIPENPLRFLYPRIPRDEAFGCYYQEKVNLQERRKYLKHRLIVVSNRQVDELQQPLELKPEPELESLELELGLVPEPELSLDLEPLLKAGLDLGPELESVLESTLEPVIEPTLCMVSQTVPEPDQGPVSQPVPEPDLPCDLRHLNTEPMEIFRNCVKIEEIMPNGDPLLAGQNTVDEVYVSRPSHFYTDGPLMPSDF

Row | Binder | Pearson correlation coefficient rP (co-localization) [1] | Pearson correlation coefficient rP (co-localization) [2] | Pearson correlation coefficient rP (co-localization) [3]
1 | B1 | ≥ 0.94 | – | –
2 | B2 | ≥ 0.94 | – | –
3 | B3 | ≥ 0.94 | 0.97 | –
4 | B4 | – | – | 0.97
